Source: the supplement of paper PMC9170038

Test system: MS2 coat protein
Experiment: apparent KD of MS2 coat protein; designed switch direction (-1 OFF switch, 1 ON switch): -1; higher = weaker reporter binding
In short: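 Designed RNA switches were transcribed on Illumina chips by stalled E. coli RNA polymerase and titrated with SNAP-549-labelled MS2 coat protein from 0.7 or 1.5 nM, doubling to 3 µM. Step length ran from 0.8–1.5 h at the lowest concentration to 10–20 min at the highest. The apparent KD is the median over clusters for each design, from curve-fitted normalised cluster fluorescence.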

[1] = input ligand: microRNA oligo, concentration not stated
[2] = Eterna round: R95, input ligand: microRNA oligo, concentration not stated
[3] = Eterna round: R95, input ligand: FMN 200 uM
[4] = Eterna round: R95, input ligand: none

Sequence | apparent KD of MS2 coat protein (input ligand: FMN 200 uM) | apparent KD of MS2 coat protein [1] | apparent KD of MS2 coat protein (input ligand: none) | apparent KD of MS2 coat protein [2] | apparent KD of MS2 coat protein [3] | apparent KD of MS2 coat protein [4]
UGAACCCAUGUUAGGAUAUCAGGCCGAGGAAGUUCUGAGAAGGGACAUGAGGAUCACCCAUGUAUAAAAGAAAC [Veontiinge] (Eterna round: R96, puzzle: Brourd's mod of Exclusion 4) | 44.1 nM | 44.6 nM | 51.7 nM |  |  | 
UGAACCCAUGUUAGGAUAUCAGGCCGAGGAAGUUCUGAGAAGGGACAUGAGGAUCACCCAUGUAUAAAAGAAAC [Veontiinge] (puzzle: Brourd's mod of Exclusion 4) |  |  |  | 63.6 nM |  | 
UGAAGUAGAAACCGAUCCUACAUGAGGAUCACCCAUGUAGCAAGACGUGCACGCGAAGCUCGUCAGACUACCAGAAG [salish99_TOv1_r3_002] (puzzle: Sensor v3, turn-off variant 1) |  |  |  | 167 nM | 170 nM | 366 nM
UGAAGUAGAGGAUAUACGUGGAAAUAGAUUCAUGUUAAUCUACAUGAGGAUCACCCAUGUAGAAGGCUAUAGAU [JR_Ex2_Sub074] (Eterna round: R97, puzzle: Exclusion 2) | 69.3 nM |  | 24.3 nM |  |  | 
UGACGAGUAGGAUAUUGGACUUGCGACAUGAGGAUCACCCAUGUGACGUCAACGUGGCACCAAGAAGGGCUACGUC [Gelareusdi] (Eterna round: R96, puzzle: Exclusion 5) | 53.4 nM | 49.3 nM | 63.3 nM |  |  | 
UGACGAGUAGGAUAUUGGACUUGCGACAUGAGGAUCACCCAUGUGACGUCAACGUGGCACCAAGAAGGGCUACGUC [Gelareusdi] (puzzle: Exclusion 5) |  |  |  | 47.7 nM |  | 
UGAGUGCUGCGAGGAUAUACAUGAGGAUCACCCAUGUAAUCGUCUGAGGCAAAGCCUCAGACGAAGUAGAAGGCGCAGUACUCU [Mat - Exclusion NG 2 - Mod of JL - D26] (Eterna round: R96, puzzle: Exclusion NG 2) | 15.5 nM | 11.5 nM | 17.2 nM |  |  | 
UGAGUGCUGCGAGGAUAUACAUGAGGAUCACCCAUGUUUUCCUGUGAGGCAUAGCCUCACAGGAUGUAGAAGGCGCAGUACUCU [Mat - Exclusion NG 2 - Mod of JL - D28] (Eterna round: R96, puzzle: Exclusion NG 2) | 10.6 nM | 8.03 nM | 13.8 nM |  |  | 
UGAUCUAGCGGAGGAUAUACAUGAGGAUCACCCAUGUAUAGGCUAUCUGGUGACAGGUGGAACAUGUAGAAGGCCGCUAGAUCU [JL ENG2 3.80] (Eterna round: R96, puzzle: Exclusion NG 2) | 78.1 nM | 12.7 nM | 17.9 nM |  |  | 
UGAUCUUGAGUCAGGAUAUGCUGGUAUUUUUACCAGCAGAAGGGACAUGAGGAUCACCCAUGUUCUCACUUUUU [Magic-13] (puzzle: Brourd's mod of Exclusion 4) |  |  |  | 10.5 nM |  | 
UGCAGACGAGGAUAUAAAUGAUAUAACAUGAGGAUCACCCAUGUACGAUCGAAUGAUCGUUUAGAAGGCGUCUGCA [E5/11-A2] (Eterna round: R97, puzzle: Exclusion 5) | 18.5 nM |  | 17.4 nM |  |  | 
UGCAGACGAGGAUAUAGAUUUGAUAACAUGAGGAUCACCCAUGUGAUCGAUAGAUCAGAUUUAGAAGGCGUCUGCA [E5/8-A2] (Eterna round: R97, puzzle: Exclusion 5) | 628 nM |  | 529 nM |  |  | 
UGCAGACGAGGAUAUGAUUAAUAAUACAUGAGGAUCACCCAUGUAAUACUGAUCUAUGGAUCAGAAGGUGUCUGCA [E5/6-B2] (Eterna round: R97, puzzle: Exclusion 5) | 17.7 nM |  | 28.3 nM |  |  | 
UGCCAGCGAGGAUAUGCUAGAGGUGUUCCGUGCUCUAAGGGACAUGAGGAUCACCCAUGUAGAAGGCGCACGUC [Eternabot (L1) Solution 20] (Eterna round: R97, puzzle: Exclusion 2) | 187 nM |  | 194 nM |  |  | 
UGCCGUAGAGGAUAUACGUAGAAAUAGAUUCAUGUAAAACUACAUGAGGAUCACCCAUGUAGAAGGCUAUGGCU [JL-ex2-4.32 Eli mod] (Eterna round: R97, puzzle: Exclusion 2) | 243 nM |  | 25.3 nM |  |  | 
UGCGGGCUUUUGAGACCUCACAUGAGGAUCACCCAUGUGCUUGUCUUGUAAGUGGGUAGGUCGUUGGCUGACUCACA [Sensor-V1 #100] (Eterna round: R97, puzzle: Sensor, turn-off variant 1) | 18.8 nM |  | 17.5 nM |  |  | 
UGCGGUAGAGGAUAUACGUAGAAAUAGAUUCAUGUAAAACUACAUGAGGAUCACCCAUGUAGAAGGCUAUCGCU [JL-ex2-4.27 Eli mod] (Eterna round: R97, puzzle: Exclusion 2) | 265 nM |  | 25.8 nM |  |  | 
UGCGUACAUGAGGAUCACCCAUGUGAGGAUAUUUGGCAUCGCGAGUGCCCAAGGAGAUAGAGAAGGCAUAUGGA [Eternabot (L1) Solution 50] (Eterna round: R97, puzzle: Exclusion 1) | 34.3 nM |  | 37.2 nM |  |  | 
UGCGUGUGAGGAUAUGCGCGUGGCGAUCUUAAGUUACGCAAGCAGAAGGCACAUGAGGAUCACCCAUGUGGCCA [Eternabot (L1) Solution 20] (Eterna round: R97, puzzle: Exclusion 4) | 98.5 nM |  | 20.3 nM |  |  | 
UGGAGGUGAGGAUAUACAUGAGGAUCACCCAUGUGGUGAAGUAGAGAGUAGUGGAGUGGUAGAAGGCACGAGUA [Version #1] (Eterna round: R97, puzzle: Exclusion 3) | 702 nM |  | 352 nM |  |  | 
UGGCUUAGAGGAUAUACAUUGAAUAAGAUUCAUGUAAAACUACAUGAGGAUCACCCAUGUAGAAGGCUAGGCCU [Mat - Exclusion 2 - JL Mod - D73] (Eterna round: R97, puzzle: Exclusion 2) | 32.7 nM |  | 17.9 nM |  |  | 
UGGUGUGAAGGAUAUACAUGAGGAUCACCCAUGUAUGAGGUGUGUGUUGAGGUGGAGGGUAGAAGGUCAGGUGG [JR_Exclusion3_Sub013] (puzzle: Exclusion 3) |  |  |  | 32.2 nM |  | 
UGUACUAACACGAUAGUGUUAGUACUAUAAGCUUGUGUUACAUGAGGAUCACCCAUGUCCUCAUAAGCUCGUCUUGA [Mat - Sensor v3 - Turn-off var 2 - D93] (Eterna round: R96, puzzle: Sensor v3, turn-off variant 2) | 36.8 nM | 472 nM | 38.9 nM |  |  | 
UGUACUAACACGAUAGUGUUAGUACUAUAAGCUUGUGUUACAUGAGGAUCACCCAUGUCCUCAUAAGCUCGUCUUGA [Mat - Sensor v3 - Turn-off var 2 - D93] (puzzle: Sensor v3, turn-off variant 2) |  |  |  | 712 nM | 32.3 nM | 31.2 nM
UGUACUAUGCGAGCUGACUUGCGUAGUGCAGCAGGUGUUACAUGAGGAUCACCCAUGUCCUCAUUUGCUCGUCUUAU [SL-sv3-2.04 JL mod] (puzzle: Sensor v3, turn-off variant 2) |  |  |  | 231 nM | 289 nM | 200 nM
UGUGCGUAUGUGAGGAUAUGCUGGUCCUUGGAUCAGCAGAAGGCACAUGAGGAUCACCCAUGUGGUGUCGUACG [salish99_Bmod_Ex4_008] (puzzle: Brourd's mod of Exclusion 4) |  |  |  | 96.9 nM |  | 
UGUUAAGCAGGAUAUACGUUGUCCUAUUAAACUAGUGAAGGACAUGAGGAUCACCCAUGUAGAAGGGCUAAGCG [Eternabot (L2) Solution 70] (Eterna round: R97, puzzle: Exclusion 2) | 85.2 nM |  | 83.7 nM |  |  | 
UGUUGUCGCGCAGGAUAUGAGGAUCACCCAUAUAAAGGAUAUGAAAAGAAGGUUCUGAGGAUCACCCAGAAGGGCGGGACAACU [pwkr exNG2 2xF5 2xFMN.18] (Eterna round: R96, puzzle: Exclusion NG 2) | 347 nM | 49 nM | 62.6 nM |  |  | 
UGUUGUCGCGUAGGAUAUGAGGAUCACCCAUAUAGAGGAUAUGAAAAGAAGGCUCUGAGGAUUACCCAGAAGGACGGGACAACU [pwkr exNG2 2xF5 2xFMN.22] (Eterna round: R96, puzzle: Exclusion NG 2) | 1180 nM | 132 nM | 155 nM |  |  | 
UGUUGUUACGCAGGAUAUGAGGAUCACCCAUAUCAGGAUAUCGAAAGAGAACUUCUGAGGAUCACCCAGAAGGGCGGGUUAACA [pwkr exNG2 2xF5 2xFMN.38] (Eterna round: R96, puzzle: Exclusion NG 2) | 16.9 nM | 13.6 nM | 21.2 nM |  |  | 
